Measurements as given in US20090264360A1.

Target: lamprey GnRH receptor (sea lamprey (Petromyzon marinus))
Test: cell-based or functional assay

“lamprey GnRH-III (from UniProt P30948 1-10) (peptide)” gave a fold difference of EC50 against lamprey GnRH-I (IP and cAMP) (fold lower than lamprey GnRH-I) of 40 to 50.
